Measured values from patent publication US20230263900A1, “DENDRIMER-DRUG CONJUGATE” (priority 2020, published 2023).

Test: Pharmacokinetic studies of RHa-5 and RHa-15, single IV or SC administration, compared with RDV
Assay type: in vivo, animals (mammals)
Conditions: for C0, plasma GS-441524 / C0, plasma Remdesivir / F AUC(0-inf), plasma GS-441524 / F AUC(0-inf), plasma Remdesivir / F AUC(0-last), plasma GS-441524 / F AUC(0-last), plasma Remdesivir / Clast, plasma GS-441524 / Clast, plasma Remdesivir / t1/2last, plasma GS-441524 / t1/2last, plasma Remdesivir / tlast, plasma GS-441524 / tlast, plasma Remdesivir: 6.17 mg/kg Remdesivir equivalent; for F AUC(0-inf), plasma GS-441524 / F AUC(0-inf), plasma Remdesivir / F AUC(0-last), plasma GS-441524 / F AUC(0-last), plasma Remdesivir: relative to RDV IV
Description: Studies were undertaken to investigate the pharmacokinetic (PK) profile of two Remdesivir dendrimer conjugates following single intravenous (IV) or subcutaneous (SC) administration, and to compare them with that of Remdesivir (RDV).
The study consisted of two phases (PK Phase 1 and PK Phase 2) in a total of 6 animals (age 36-48 months) each part separated by a washout period: • PK Phase 1: Four animals (mammals) were studied. One male and one female were administered RHa-5 (BHALys [Lys]2[Lys]2[Lys]8[Lys]16[Lys]32[(α-NH-6N-TDA-Remdesivir)32(ε-NH-COPEG2000)32] 20% Remdesivir loading w/w) (test item) intravenously; and one male and one female were administered RHa-5 subcutaneously. Blood samples were taken over a period of 7 days. A minimum washout period of 14 days took place between the last blood sampling point of the PK Phase 1 and the start of PK Phase 2. • PK Phase 2: Six animals (mammals) were studied. One male and one female were administered RHa-15 (BHALys[Lys]2[Lys]4[Lys]8[Lys]16[Lys]32[(α-NH-3′ O-TDA-Remdesivir)32(ε-NH-COPEG2000)32] 18.63% Remdesivir loading w/w) (test item) intravenously; one male and one female were administered RHa-15 subcutaneously; and one male and one female were administered RDV (reference item). Blood samples were taken over a period of 7 days.
Formulation procedure: Test items RHa-5 and RHa-15 were reconstituted in Required volume of Water for injection (WFI), until a complete solution was obtained. The required volume of WFI was slowly added to RDV formulation (a lyophilate of 3.2% w/w RDV, 96.8% and sodium sulfobutylether-β-cyclodextrin adjusted to pH 3.5 with HCl) and shaken vigorously for 30 seconds. The solution was left for 20 minutes to ensure complete dissolution.
Administration: The clinical Remdesivir loading dose in humans is 200 mg. […] Allometric conversion of the dose from humans to small mammals results in an equivalent test dose of 6.17 mg/kg Remdesivir. Test item was administered as follows:
PK Phase 1: Two animal groups (A and B) of one male and one female each were administered test item RHa-5 at a Remdesivir equivalent dose of 6.17 mg/kg. Group A were administered the test item as a slow (30 seconds) intravenous bolus; and Group B were administered the test item over 30 seconds using the subcutaneous (SC) route into the back of the animal.
PK Phase 2: Three animal groups (C, D and E) of one male and one female each were included in this study phase. Groups C and D were administered test item RHa-15 at a Remdesivir equivalent dose of 6.17 mg/kg using the IV and SC routes, respectively. Group E were administered 6.17 mg/kg of RDV intravenously. IV administrations were done as a slow (30 seconds) bolus. SC administrations were done over 30 seconds.
Sampling schedule: Blood samples for PK analysis were collected as follows: • Day 1: pre-dose and at 15 min, 30 min, 1 h, 2 h, 4 h, 6 h, and 12 h after administration. • Days 2 to 8: 24, 48, 72, and 168 h after administration.
A blood volume of 2 mL was collected at each time point from the jugular vein with a 20-21G needle into a lithium heparin tube, and transferred into a tube containing 200 μL 0.15 M citric acid. Immediately following blood collection, the blood samples were mixed gently and kept on crushed ice until centrifugation at 1500 G for 10 min at 4° C. within 30 minutes of collection. Each plasma sample was stored frozen (˜80±10° C.).
The quantification range was 0.6 to 14400 ng/mL for Remdesivir and 0.6 to 14400 ng/mL for G441524.
Non-compartmental pharmacokinetic analysis was adopted to obtain the pharmacokinetic parameters from the blood concentration profiles.
The maximum concentration, Cmax, and time of maximum concentration, Tmax, were determined as the maximum measured concentration and its associated time. The area under the plasma concentration curve from 0 hours to the time of the last measurable concentration, AUC0-last, was calculated using linear trapezoidal estimation. […]

BHALys[Lys]2[Lys]4[Lys]8[Lys]16[Lys]32[(α-NH-6N-TDA-Remdesivir)32(ε-NH-COPEG2000)32] [RHa-5]
Release profile for plasma Remdesivir (IV and SC): excellent sustained release profile
C0, plasma GS-441524 (IV, female (4F)): 2 ng/mL
C0, plasma Remdesivir (IV, female (4F)): 4648 ng/mL
F AUC(0-inf), plasma GS-441524 (IV, female (4F)): 0.8 x-fold
F AUC(0-inf), plasma Remdesivir (IV, female (4F)): 605.7 x-fold
F AUC(0-last), plasma GS-441524 (IV, female (4F)): 0.8 x-fold
F AUC(0-last), plasma Remdesivir (IV, female (4F)): 667.2 x-fold
Clast, plasma GS-441524 (IV, female (4F; RDV 6F)): 3.7 ng/mL
Clast, plasma Remdesivir (IV, female (4F; RDV 6F)): 22.0 ng/mL
t1/2last, plasma GS-441524 (IV, female (4F; RDV 6F)): 39.6 h
t1/2last, plasma Remdesivir (IV, female (4F; RDV 6F)): 19.2 h
tlast, plasma GS-441524 (IV, female (4F; RDV 6F)): 168 h
tlast, plasma Remdesivir (IV, female (4F; RDV 6F)): 168 h
C0, plasma GS-441524 (IV, male (1M)): 2 ng/mL
C0, plasma Remdesivir (IV, male (1M)): 5701 ng/mL
F AUC(0-inf), plasma GS-441524 (IV, male (1M)): 0.9 x-fold
F AUC(0-inf), plasma Remdesivir (IV, male (1M)): 437.4 x-fold
F AUC(0-last), plasma GS-441524 (IV, male (1M)): 0.8 x-fold
F AUC(0-last), plasma Remdesivir (IV, male (1M)): 438.1 x-fold
Clast, plasma GS-441524 (IV, male (1M; RDV 3M)): 3.1 ng/mL
Clast, plasma Remdesivir (IV, male (1M; RDV 3M)): 98.7 ng/mL
t1/2last, plasma GS-441524 (IV, male (1M; RDV 3M)): 36.6 h
t1/2last, plasma Remdesivir (IV, male (1M; RDV 3M)): 29.5 h
tlast, plasma GS-441524 (IV, male (1M; RDV 3M)): 168 h
tlast, plasma Remdesivir (IV, male (1M; RDV 3M)): 168 h
C0, plasma GS-441524 (IV, mean of male and female): 2 ng/mL
C0, plasma Remdesivir (IV, mean of male and female): 5175 ng/mL
Clast, plasma GS-441524 (IV, mean of male and female): 3 ng/mL
Clast, plasma Remdesivir (IV, mean of male and female): 60 ng/mL
t1/2last, plasma GS-441524 (IV, mean of male and female): 38.1 h
t1/2last, plasma Remdesivir (IV, mean of male and female): 24.3 h
tlast, plasma GS-441524 (IV, mean of male and female): 168 h
tlast, plasma Remdesivir (IV, mean of male and female): 168 h
F AUC(0-inf), plasma GS-441524 (IV, mean): 0.8 x-fold
F AUC(0-inf), plasma Remdesivir (IV, mean): 521.6 x-fold
F AUC(0-last), plasma GS-441524 (IV, mean): 1 x-fold
F AUC(0-last), plasma Remdesivir (IV, mean): 553 x-fold
Clast, plasma GS-441524 (SC, female (5F)): 6.5 ng/mL
Clast, plasma Remdesivir (SC, female (5F)): 21.1 ng/mL
tlast, plasma GS-441524 (SC, female (5F)): 168 h
tlast, plasma Remdesivir (SC, female (5F)): 168 h
F AUC(0-last), plasma GS-441524 (SC, female (5F)): 0.7 x-fold
F AUC(0-last), plasma Remdesivir (SC, female (5F)): 113.8 x-fold
Clast, plasma GS-441524 (SC, male (2M)): 8.8 ng/mL
Clast, plasma Remdesivir (SC, male (2M)): 34.4 ng/mL
t1/2last, plasma GS-441524 (SC, male (2M)): 61.9 h
t1/2last, plasma Remdesivir (SC, male (2M)): 28.9 h
tlast, plasma GS-441524 (SC, male (2M)): 168 h
tlast, plasma Remdesivir (SC, male (2M)): 168 h
F AUC(0-inf), plasma GS-441524 (SC, male (2M)): 1.1 x-fold
F AUC(0-inf), plasma Remdesivir (SC, male (2M)): 146.8 x-fold
F AUC(0-last), plasma GS-441524 (SC, male (2M)): 1.0 x-fold
F AUC(0-last), plasma Remdesivir (SC, male (2M)): 146.9 x-fold
Clast, plasma GS-441524 (SC, mean): 7.7 ng/mL
Clast, plasma Remdesivir (SC, mean): 28 ng/mL
t1/2last, plasma GS-441524 (SC, mean): 61.9 h
t1/2last, plasma Remdesivir (SC, mean): 28.9 h
tlast, plasma GS-441524 (SC, mean): 168 h
tlast, plasma Remdesivir (SC, mean): 168 h
F AUC(0-inf), plasma GS-441524 (SC, mean): 1.1 x-fold
F AUC(0-inf), plasma Remdesivir (SC, mean): 147 x-fold
F AUC(0-last), plasma GS-441524 (SC, mean): 1 x-fold
F AUC(0-last), plasma Remdesivir (SC, mean): 130 x-fold
Plasma Remdesivir t1/2 and AUC compared to RDV delivered IV (delivered IV or SC): substantially extended plasma Remdesivir t1/2 and increased AUC
